According to publication PMC10548113, “Modeling a variant of unknown significance in the Drosophila ortholog of the human cardiogenic gene NKX2.5”:
Where a chain is given by its changes, count along the chain named.

Legend:
[1] = molecular target: T1, MBP-Tin R321N HD (Drosophila melanogaster, UniProt P22711 301-360, R321N); experiment: EMSA; 1.5 ug protein, equal to WT; EMSA: 40 mM KCl, 15 mM HEPES pH 7.9, 1 mM EDTA, 0.5 mM DTT, 5% glycerol, 4 ug poly-dIdC; temperature not stated; settings: protein: recombinant; tags: N-terminal MBP; label: radioactive (probe); only one strand given
T1 sequence: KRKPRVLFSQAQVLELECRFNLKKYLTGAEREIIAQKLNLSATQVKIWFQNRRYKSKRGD

[2] = molecular target: T2, MBP-Tin HD (WT) (Drosophila melanogaster, UniProt P22711 301-360); experiment: EMSA; 1.5 ug protein; competed by 300-fold excess unlabelled WT; EMSA: 40 mM KCl, 15 mM HEPES pH 7.9, 1 mM EDTA, 0.5 mM DTT, 5% glycerol, 4 ug poly-dIdC; temperature not stated; settings: protein: recombinant; tags: N-terminal MBP; label: radioactive (probe); only one strand given
T2 sequence: T1 sequence with N21R

B1: Mp Tin1 site (dsDNA)
DNA 1: GGACTCTTTGGCTGAAGTGTCCGGTGAAA
DNA 2: TTTCACCGGACACTTCAGCCAAAGAGTCC
binding signal [1]: 7 % of WT band intensity | binding result [2]: binds
